Measured values: patent US20130089497A1 (Genentech, published 2013)

Assays:
[1] = target: T1, gD tagged human FcRH3 on SVT2 cells (human, UniProt Q96P31 18-734); test: FACS, SVT2.MSCV.gD.FcRH3 cells, PE secondary antibody
T1 construct: whole, on cells; also called huFcRH3; not shown: gD tag; the construct for this FcRH is not described
T1 sequence (looked up): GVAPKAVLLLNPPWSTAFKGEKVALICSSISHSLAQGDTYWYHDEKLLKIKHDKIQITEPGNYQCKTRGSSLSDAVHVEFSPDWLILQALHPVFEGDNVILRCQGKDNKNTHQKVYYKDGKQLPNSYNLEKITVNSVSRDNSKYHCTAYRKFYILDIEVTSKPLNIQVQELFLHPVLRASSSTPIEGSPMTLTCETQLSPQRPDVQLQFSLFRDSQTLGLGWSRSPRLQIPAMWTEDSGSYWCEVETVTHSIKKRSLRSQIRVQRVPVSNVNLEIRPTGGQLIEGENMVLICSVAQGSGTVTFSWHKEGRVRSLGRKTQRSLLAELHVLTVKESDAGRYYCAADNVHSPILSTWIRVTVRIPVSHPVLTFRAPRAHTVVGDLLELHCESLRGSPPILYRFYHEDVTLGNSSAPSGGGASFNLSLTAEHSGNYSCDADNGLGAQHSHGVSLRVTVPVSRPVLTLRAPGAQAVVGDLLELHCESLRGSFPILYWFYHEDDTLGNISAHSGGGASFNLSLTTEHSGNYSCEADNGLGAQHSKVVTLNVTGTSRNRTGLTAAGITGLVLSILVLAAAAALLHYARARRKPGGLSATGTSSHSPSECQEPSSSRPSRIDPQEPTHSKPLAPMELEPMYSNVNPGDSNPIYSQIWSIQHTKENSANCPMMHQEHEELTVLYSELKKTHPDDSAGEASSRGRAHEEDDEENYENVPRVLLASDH

[2] = target: T2, human FcRH5 (FcRH5c/IRTA2c, PRO52387), soluble recombinant protein (human, UniProt Q96RD9 16-851); test: SPR (Biacore 2000): IgG captured on anti-murine IgG chip, FcRH injected, 25 C, 1:1 Langmuir model
T2 construct: also called Hu antigen; FcRH5 protein
T2 chain: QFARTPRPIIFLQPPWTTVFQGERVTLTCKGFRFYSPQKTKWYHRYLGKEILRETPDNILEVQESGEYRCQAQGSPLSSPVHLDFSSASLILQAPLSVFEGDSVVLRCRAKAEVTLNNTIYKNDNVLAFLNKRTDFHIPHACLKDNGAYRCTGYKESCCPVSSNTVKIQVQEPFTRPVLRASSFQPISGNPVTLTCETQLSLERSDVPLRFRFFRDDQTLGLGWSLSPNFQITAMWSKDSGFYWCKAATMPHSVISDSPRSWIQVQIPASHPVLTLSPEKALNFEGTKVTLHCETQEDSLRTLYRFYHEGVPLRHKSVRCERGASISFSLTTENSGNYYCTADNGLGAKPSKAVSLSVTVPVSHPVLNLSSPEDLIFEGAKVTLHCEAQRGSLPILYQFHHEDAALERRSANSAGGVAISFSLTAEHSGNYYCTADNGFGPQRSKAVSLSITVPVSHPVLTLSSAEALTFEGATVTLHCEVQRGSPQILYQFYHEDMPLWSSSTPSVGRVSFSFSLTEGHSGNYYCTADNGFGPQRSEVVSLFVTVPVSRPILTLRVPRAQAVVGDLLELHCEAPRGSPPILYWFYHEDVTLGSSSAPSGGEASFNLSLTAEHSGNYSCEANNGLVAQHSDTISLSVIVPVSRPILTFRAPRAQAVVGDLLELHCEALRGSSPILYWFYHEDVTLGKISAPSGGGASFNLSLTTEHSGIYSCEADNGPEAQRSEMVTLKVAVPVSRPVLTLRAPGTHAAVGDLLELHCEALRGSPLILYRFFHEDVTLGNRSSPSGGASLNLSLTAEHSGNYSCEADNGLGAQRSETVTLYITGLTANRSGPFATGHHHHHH

B1: murine monoclonal antibody anti-FcRH5-13G9 (antibody, V domains shown)
VH: EVQLVQSGPELKKPGETVKISCKASGYTFTNYGMNWVKQAPGKGLKWMGWVNTYTGEPTYTDDFKGRFAFSVETSASTVFLQINNLKNEDTATYFCARRSIPYYYAMDYWGQGTSLT
VL: DIVMTQSQKIMSTSVGDRVNVTCKASQNVGSNVAWYHQKPGQSPKALIYSASYRYSGVPDRFTGSGSGTDFTLTISNVQSEDLAEYFCQQYKTWTFGGGTKLEIKR
notes: Whole murine IgG from hybridoma; also called 13G9.1.1; mu13G9
[1]
  binding result: no binding (tested: 1.0 ug per about 10^6 cells (p-1120))
[2]
  Kd: 19 nM
